Assay results as given in PMC2707180 (Nature structural & molecular biology, 2008).

B1: GST-tagged C-terminal fragment of Prp8 (1806-2413 aa) (domain or fragment)
chain: MKANPALYVLRERIRKGLQIYQSSVQEPFLNSSNYAELFNNDIKLFVDDTNVYRVTVHKTFEGNVATKAINGCIFTLNPKTGHLFLKIIHTSVWAGQKRLSQLAKWKTAEEVSALVRSLPKEEQPKQIIVTRKAMLDPLEVHMLDFPNIAIRPTELRLPFSAAMSIDKLSDVVMKATEPQMVLFNIYDDWLDRISSYTAFSRLTLLLRALKTNEESAKMILLSDPTITIKSYHLWPSFTDEQWITIESQMRDLILTEYGRKYNVNISALTQTEIKDIILGQNIKAPSVKRQKMAELEAARSEKQNDEEAAGASTVMKTKTINAQGEEIVVVASADYESQTFSSKNEWRKSAIANTLLYLRLKNIYVSADDFVEEQNVYVLPKNLLKKFIEISDVKIQVAAFIYGMSAKDHPKVKEIKTVVLVPQLGHVGSVQISNIPDIGDLPDTEGLELLGWIHTQTEELKFMAASEVATHSKLFADKKRDCIDISIFSTPGSVSLSAYNLTDEGYQWGEENKDIMNVLSEGFEPTFSTHAQLLLSDRITGNFIIPSGNVWNYTFMGTAFNQEGDYNFKYGIPLEFYNEMHRPVHFLQFSELAGDEELEAEQIDVFS
B2: GST-tagged Prp8-CTF with the RP mutation F2382L (domain or fragment)
chain: MKANPALYVLRERIRKGLQIYQSSVQEPFLNSSNYAELFNNDIKLFVDDTNVYRVTVHKTFEGNVATKAINGCIFTLNPKTGHLFLKIIHTSVWAGQKRLSQLAKWKTAEEVSALVRSLPKEEQPKQIIVTRKAMLDPLEVHMLDFPNIAIRPTELRLPFSAAMSIDKLSDVVMKATEPQMVLFNIYDDWLDRISSYTAFSRLTLLLRALKTNEESAKMILLSDPTITIKSYHLWPSFTDEQWITIESQMRDLILTEYGRKYNVNISALTQTEIKDIILGQNIKAPSVKRQKMAELEAARSEKQNDEEAAGASTVMKTKTINAQGEEIVVVASADYESQTFSSKNEWRKSAIANTLLYLRLKNIYVSADDFVEEQNVYVLPKNLLKKFIEISDVKIQVAAFIYGMSAKDHPKVKEIKTVVLVPQLGHVGSVQISNIPDIGDLPDTEGLELLGWIHTQTEELKFMAASEVATHSKLFADKKRDCIDISIFSTPGSVSLSAYNLTDEGYQWGEENKDIMNVLSEGFEPTFSTHAQLLLSDRITGNFIIPSGNVWNYTFMGTAFNQEGDYNFKYGIPLELYNEMHRPVHFLQFSELAGDEELEAEQIDVFS
B3: GST-tagged Prp8-CTF with the RP mutation R2388K (domain or fragment)
chain: MKANPALYVLRERIRKGLQIYQSSVQEPFLNSSNYAELFNNDIKLFVDDTNVYRVTVHKTFEGNVATKAINGCIFTLNPKTGHLFLKIIHTSVWAGQKRLSQLAKWKTAEEVSALVRSLPKEEQPKQIIVTRKAMLDPLEVHMLDFPNIAIRPTELRLPFSAAMSIDKLSDVVMKATEPQMVLFNIYDDWLDRISSYTAFSRLTLLLRALKTNEESAKMILLSDPTITIKSYHLWPSFTDEQWITIESQMRDLILTEYGRKYNVNISALTQTEIKDIILGQNIKAPSVKRQKMAELEAARSEKQNDEEAAGASTVMKTKTINAQGEEIVVVASADYESQTFSSKNEWRKSAIANTLLYLRLKNIYVSADDFVEEQNVYVLPKNLLKKFIEISDVKIQVAAFIYGMSAKDHPKVKEIKTVVLVPQLGHVGSVQISNIPDIGDLPDTEGLELLGWIHTQTEELKFMAASEVATHSKLFADKKRDCIDISIFSTPGSVSLSAYNLTDEGYQWGEENKDIMNVLSEGFEPTFSTHAQLLLSDRITGNFIIPSGNVWNYTFMGTAFNQEGDYNFKYGIPLEFYNEMHKPVHFLQFSELAGDEELEAEQIDVFS

target: full-length Brr2 with C-terminal calmodulin-binding domain (S. cerevisiae, UniProt P32639 1-2163); test: pull-down
Sequence (P32639 whole entry, the tested form may be a part): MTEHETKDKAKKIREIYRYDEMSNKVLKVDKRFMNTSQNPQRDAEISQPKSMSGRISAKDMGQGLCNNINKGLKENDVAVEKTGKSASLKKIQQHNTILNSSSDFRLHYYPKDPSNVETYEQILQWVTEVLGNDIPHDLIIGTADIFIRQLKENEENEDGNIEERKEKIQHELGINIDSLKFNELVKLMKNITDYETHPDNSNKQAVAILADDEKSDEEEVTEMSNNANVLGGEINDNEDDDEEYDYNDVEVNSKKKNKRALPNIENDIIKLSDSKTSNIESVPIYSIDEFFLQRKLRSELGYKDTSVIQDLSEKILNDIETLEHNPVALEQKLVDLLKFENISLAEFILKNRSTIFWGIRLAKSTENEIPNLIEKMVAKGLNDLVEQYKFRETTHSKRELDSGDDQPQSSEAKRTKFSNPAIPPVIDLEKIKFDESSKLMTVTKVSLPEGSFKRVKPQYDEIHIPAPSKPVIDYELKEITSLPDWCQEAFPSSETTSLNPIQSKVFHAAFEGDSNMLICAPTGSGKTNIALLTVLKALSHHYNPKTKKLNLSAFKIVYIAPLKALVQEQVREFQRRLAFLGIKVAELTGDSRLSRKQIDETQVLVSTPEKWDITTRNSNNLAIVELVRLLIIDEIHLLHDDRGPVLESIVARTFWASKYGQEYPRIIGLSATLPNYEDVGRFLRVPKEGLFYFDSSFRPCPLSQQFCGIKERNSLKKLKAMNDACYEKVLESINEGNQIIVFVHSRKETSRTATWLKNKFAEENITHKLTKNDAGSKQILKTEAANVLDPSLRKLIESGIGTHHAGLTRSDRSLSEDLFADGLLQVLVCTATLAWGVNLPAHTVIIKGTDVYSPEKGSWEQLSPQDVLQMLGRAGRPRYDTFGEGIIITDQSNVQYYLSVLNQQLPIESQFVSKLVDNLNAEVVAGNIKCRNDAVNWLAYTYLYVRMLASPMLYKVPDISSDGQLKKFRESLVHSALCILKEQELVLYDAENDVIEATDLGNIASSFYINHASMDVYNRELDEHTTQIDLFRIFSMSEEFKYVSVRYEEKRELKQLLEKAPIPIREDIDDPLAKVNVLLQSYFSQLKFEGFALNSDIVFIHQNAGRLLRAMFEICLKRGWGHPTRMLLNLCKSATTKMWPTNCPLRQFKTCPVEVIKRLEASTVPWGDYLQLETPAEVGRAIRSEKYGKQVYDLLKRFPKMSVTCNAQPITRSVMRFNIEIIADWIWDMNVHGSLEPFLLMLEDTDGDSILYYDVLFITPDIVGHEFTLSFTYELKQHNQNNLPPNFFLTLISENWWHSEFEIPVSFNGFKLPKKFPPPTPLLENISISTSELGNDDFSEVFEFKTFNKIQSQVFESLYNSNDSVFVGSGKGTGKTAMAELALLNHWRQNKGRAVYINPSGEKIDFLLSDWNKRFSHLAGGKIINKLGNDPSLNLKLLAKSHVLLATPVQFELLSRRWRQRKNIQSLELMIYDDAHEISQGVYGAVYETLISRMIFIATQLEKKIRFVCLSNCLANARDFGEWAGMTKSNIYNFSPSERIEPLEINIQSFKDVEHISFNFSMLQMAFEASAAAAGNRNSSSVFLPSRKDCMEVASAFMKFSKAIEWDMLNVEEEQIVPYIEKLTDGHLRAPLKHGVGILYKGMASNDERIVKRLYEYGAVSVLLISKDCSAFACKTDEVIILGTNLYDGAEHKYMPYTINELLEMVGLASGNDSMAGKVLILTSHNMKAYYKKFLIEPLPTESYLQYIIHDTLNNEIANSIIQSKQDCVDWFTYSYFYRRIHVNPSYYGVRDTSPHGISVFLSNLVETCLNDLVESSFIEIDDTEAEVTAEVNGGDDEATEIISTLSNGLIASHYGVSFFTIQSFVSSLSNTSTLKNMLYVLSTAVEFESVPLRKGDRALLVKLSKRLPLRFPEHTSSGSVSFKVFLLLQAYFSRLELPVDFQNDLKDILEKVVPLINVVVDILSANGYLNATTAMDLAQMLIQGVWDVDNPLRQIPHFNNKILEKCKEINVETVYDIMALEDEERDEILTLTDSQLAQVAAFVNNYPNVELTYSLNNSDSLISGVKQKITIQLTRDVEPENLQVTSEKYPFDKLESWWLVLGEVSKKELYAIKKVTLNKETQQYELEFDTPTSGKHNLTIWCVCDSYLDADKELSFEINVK

Binding result, binds:
B1
B2
B3
